Test results published in patent publication EP3505186B1, “NUCLEOPHILIC CATALYSTS FOR OXIME LINKAGE” (Takeda Pharmaceutical Company Limited, priority 2010, dated 2012).

What was measured:
[1] = Specific activity of the Prolia conjugate: biological activity by methods known in the art and total protein (Bradford)
Description: The free Prolia is removed by means of cation exchange chromatography (CEC). The reaction mixture is diluted with 20 ml Buffer A (50 mM Hepes, pH 6.5) and loaded onto a 20 ml HiPrep SPFF 16/10 column (GE Healthcare, Fairfield, CT) pre-equilibrated with Buffer A. Then the column is eluted with Buffer B (50 mM Hepes, 1 M NaCl, pH 6.5). Free Prolia is eluted by washing the column with 25 % Buffer B and the conjugate at 50 % Buffer B. The conductivity of the conjugate containing fractions is subsequently raised to -190 mS/cm with Buffer C (50 mM Hepes, 5 M NaCl, pH 6.9) and loaded onto a 20 ml HiPrep Butyl FF 16/10 column (GE Healthcare, Fairfield, CT) pre-equilibrated with Buffer D (50 mM Hepes, 3 M NaCl, pH 6.9). Free PSA-reagent is washed out within 5 CV Buffer D. Subsequently, the conjugate is eluted with 100 % Buffer E (50 mM Hepes, pH 6.9). The conjugate containing fractions are concentrated by UF/DF using a 10 kD membrane made of regenerated cellulose (88 cm2, cut-off 10 kD, Millipore). The final diafiltration step is performed against histidine buffer, pH 6.9 containing 150 mM NaCl. The preparation is analytically characterized by measuring total protein (Bradford) and biological activity according to methods known in the art. For the PSA-Prolia conjugate a specific activity of > 50 % in comparison to native Prolia is determined. The conjugate is additionally analytically characterized by Size Exclusion HPLC using a Agilent 1200 HPLC system equipped with a Shodex KW 803 column under conditions as previously described (Kolarich et al, Transfusion 2006;46:1959-77). It is shown that the preparation contains no free Prolia.
The free Prolia is removed by means of cation exchange chromatography (CEC). The reaction mixture is diluted with 20 ml Buffer A (50 mM Hepes, pH 6.5) and loaded onto a 20 ml HiPrep SPFF 16/10 column (GE Healthcare, Fairfield, CT) pre-equilibrated with Buffer A. Then the column is eluted with Buffer B (50 mM Hepes, 1 M NaCl, pH 6.5). Free Prolia is eluted by washing the column with 25 % Buffer B and the conjugate at 5 0% Buffer B. The conductivity of the conjugate containing fractions is subsequently raised to -190 mS/cm with Buffer C (50 mM Hepes, 5 M NaCl, pH 6.9) and loaded onto a 20 ml HiPrep Butyl FF 16/10 column (GE Healthcare, Fairfield, CT) pre-equilibrated with Buffer D (50 mM Hepes, 3 M NaCl, pH 6.9). Free PSA-reagent is washed out within 5 CV Buffer D. Subsequently the conjugate is eluted with 100% Buffer E (50 mM Hepes, pH 6.9). The conjugate containing fractions are concentrated by UF/DF using a 10 kD membrane made of regenerated cellulose (88 cm^2, cut-off 10 kD / Millipore). […] For the PSA-Prolia conjugate a specific activity of > 50 % in comparison to native Prolia is determined. […]

rats = conditions: long-term dietary treatment of rats; Goodman et al. 1984; cited from earlier work
[2] = Harrison and Jollow 1987; cited from earlier work
[3] = in vitro studies; Bombhard and Herbold 2005; cited from earlier work

Molecule: PSA-Prolia conjugate: Prolia polysialylated with 20 kD aminooxy-PSA reagent, m-toluidine as catalyst
- specific activity in comparison to native Prolia ([1]; Reference Example 30 Method 1, alternative (oxidation, then m-toluidine and 20 kD aminooxy-PSA, 5-fold)): > 50%
- specific activity in comparison to native Prolia ([1]; Reference Example 30 Method 3, alternative (simultaneous, 20 kD aminooxy-PSA, 5 fold)): > 50%

Molecule: Nc1ccccc1 [aniline]
- tumors in the spleen (rats): induce tumors in the spleen
- methemoglobinemia [2]: induce methemoglobinemia
- chromosome mutations / genotoxic activity [3]: potential to induce chromosome mutations

Molecule: PEG-Prolia conjugate: Prolia PEGylated with a linear 20 kD aminooxy PEGylation reagent, m-toluidine as catalyst
- specific activity in comparison to native Prolia ([1]; Reference Example 44 Method 1, alternative (oxidation, then m-toluidine and 20 kD aminooxy-PEG, 5-fold)): > 50%
- specific activity in comparison to native Prolia ([1]; Reference Example 44 Method 3, alternative (simultaneous, 20 kD aminooxy-PEG, 5-fold)): > 50%
